# Measured values: US20250243273A1 (FOURTH MILITARY MEDICAL UNIVERSITY, published 2025)
# T1: human BASIGIN, native, on human erythrocytes and in human tumour tissue (human, UniProt P35613 22-385)
# T1 sequence (looked up): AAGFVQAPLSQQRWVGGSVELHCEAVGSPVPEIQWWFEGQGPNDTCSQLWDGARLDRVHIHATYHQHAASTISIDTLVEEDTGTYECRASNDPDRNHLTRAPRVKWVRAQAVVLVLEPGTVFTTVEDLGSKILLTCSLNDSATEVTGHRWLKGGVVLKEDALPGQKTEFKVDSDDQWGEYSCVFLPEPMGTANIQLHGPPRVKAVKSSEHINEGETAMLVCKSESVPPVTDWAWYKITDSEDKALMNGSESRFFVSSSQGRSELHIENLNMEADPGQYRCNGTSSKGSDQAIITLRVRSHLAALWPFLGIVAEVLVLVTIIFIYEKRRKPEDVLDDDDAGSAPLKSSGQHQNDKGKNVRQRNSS
# B1: humanized antibody HP6H8-1 (antibody, V domains shown)
# VH: EVQLVESGGGLVQPGGSLRLSCAASGFTFSNFWMNWVRQAPGKGLEWVSEIRLKSNNYATHYAESVKGRFTISRDDSKNTLYLQMNSLKTEDTAVYYCTSYDYEYWGQGTLVTVSA
# VL: DIQMTQSPSTLSASVGDRVTLSCKASENVGTYVSWYQQKPGKAPKLLIYGASNRYTGVPSRFTGSGSGTDFTLTISSLQPEDFATYYCGQSYSYPFTFGSGTKLEIK
# Target: T1, human BASIGIN, native, on human …
# Assay: cell-based or functional assay
binder,measurement,value
B1,"IC50, in vitro inhibition of Plasmodium falciparum strain 3D7 invasion of human erythrocytes (parasite rate after 72 hrs)",20 µg/mL
same,"IC50, in vitro inhibition of Plasmodium falciparum strain Dd2 invasion of human erythrocytes (parasite rate after 72 hrs)",40 µg/mL
same,"IC50, in vitro inhibition of Plasmodium falciparum strain FCC1 invasion of human erythrocytes (parasite rate after 72 hrs)",40 µg/mL
same,"IC50, in vitro inhibition of Plasmodium falciparum strain Nf54 invasion of human erythrocytes (parasite rate after 72 hrs)",50 µg/mL
